{"source": "patent US20250313611A1", "target": "SARS-COV-2 spike [change] trimer ([change]-foldon-His-Strep) (SARS-CoV-2 (Wuhan)) (UniProt P0DTC2)", "data": [{"substance": "VHH72-S56A", "values": [{"measurement": "IC50 (read off the curve)", "result": 0.6, "unit": "µg/mL"}]}]}
